These results are taken from publication PMC10797482, “The Interaction between Collagen 1 and High Mannose Type CD133 Up‐Regulates Glutamine Transporter SLC1A5 to Promote the Tumorigenesis of Glioblastoma Stem Cells” (Advanced Science, 2023).

For this assay, the target named is T1, His-COL1A1(972-1206) (human, UniProt P02452 972-1206).
T1 construct: also called COL1 (in the in vitro pull-downs); source: HEK293F, transfected (PEI), purified from the supernatants (Nickel Beads)
Briefly: pull-down; GST pull-down: 10 µg purified GST fusion protein with GST-beads incubated with His-COL1A1(972-1206) protein 1 h at 4 °C; washed three times with RIPA (1% Triton X-100, 50 mM Tris pH 7.4, 150 mM NaCl, 2 mM EDTA); blot with anti-His antibody. Particulars: both partners purified.

T1 sequence (P02452 972-1206): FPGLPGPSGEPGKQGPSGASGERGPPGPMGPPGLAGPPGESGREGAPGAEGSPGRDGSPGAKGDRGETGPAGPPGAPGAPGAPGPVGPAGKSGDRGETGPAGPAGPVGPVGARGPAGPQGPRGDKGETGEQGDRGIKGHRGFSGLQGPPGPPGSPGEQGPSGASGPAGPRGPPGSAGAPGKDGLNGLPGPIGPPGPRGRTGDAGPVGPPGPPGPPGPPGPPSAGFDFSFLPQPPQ

B1: GST-CD133(20-108) (domain or fragment, human, UniProt O43490 20-108, looked up)
chain: GGQPSSTDAPKAWNYELPATNYETQDSHKAGPIGILFELVHIFLYVVQPRDFPEDTLRKFLQKAYESKIDYDKPETVILGLKIVYYEAG
notes: source: E. coli BL21(DE3), purified (Glutathione-Superflow Resin)
Consider B1, for which the binding result is recorded as “binds”.

B2: GST-CD133 N-terminal segment (amino acids 43–81) (domain or fragment, human, UniProt O43490 43-81, looked up)
chain: TQDSHKAGPIGILFELVHIFLYVVQPRDFPEDTLRKFLQ
notes: source: E. coli BL21, purified (Glutathione-Superflow Resin)
Consider B2, for which the binding result was “binds”.
